The values below come from patent publication US20250074988A1.

For this assay, the target named is recombinant human PD-L1 protein (Item No. 10084-H08H, Sino Biological) (human) (UniProt Q9NZQ7). As to the kind of experiment: SPR, Biacore 8K, antibody captured on anti-human chip, huPD-L1 analyte, 1:1 model. On the technique in general: In SPR one partner is held on a chip, and binding of the other changes the refractive index at the surface.
recombinant human PD-L1 protein (Item No. 10084-H08H, Sino Biological) (human), sequence (Q9NZQ7 19-238 limits assumed): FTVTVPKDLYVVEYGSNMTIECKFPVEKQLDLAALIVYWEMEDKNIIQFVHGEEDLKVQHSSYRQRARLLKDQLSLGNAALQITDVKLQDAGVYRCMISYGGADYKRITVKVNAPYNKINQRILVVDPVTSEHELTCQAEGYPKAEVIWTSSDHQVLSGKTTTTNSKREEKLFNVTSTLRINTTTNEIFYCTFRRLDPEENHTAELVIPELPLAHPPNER

In the case of MDX 1105 (antibody), the dissociation constant (Kd) came to 0.359 nM, the off-rate constant (koff) came to 0.00203 s⁻¹ and the kon worked out at 5.65e+06 M⁻¹ s⁻¹.

The term Kd denotes the equilibrium constant for the complex coming apart. As a reminder, the koff is a measure of how fast the partners let go of each other. By kon is commonly meant the rate constant with which the complex forms.
